Test: yeast display, Sf9 membrane polyspecificity reagent, FACS + sequencing; frameworks hold sequencing errors
Outline: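 A nanobody's polyreactivity label depends on the gate it was sorted from. Yeast display cells were stained with 10% biotinylated, detergent-solubilized Sf9 membrane reagent for 1 hour at 4 °C, enriched on streptavidin microbeads and sorted by FACS. The low and high (top ~1%) gates were set on anti-HA fluorescence for expression and streptavidin fluorescence for reagent binding.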

Row | Sequence | polyreactivity (PSR sort gate)
1 | QVQLVESGGGLDQAGGSLRLTCAASGFTFQVYAMGWYRQAPGKERELVADITSGTSTNYADSVKGRFTSSRDNAKNTVYLQMNSLKPEDTAVYYCANVYTYKSFDYWGQGTQVTVSS | low polyreactivity
2 | QVQLVESGAGLVQAGGSLRLSCAASGSIFWAYAMGWYRQAPGKERELVAAISRGGTTTYADSVKGRFTISRDNAKYTVYLQMNSLKPEDTAVYYCARQGTIYSYDIVYPRLDYWGQGTQVTVSS | low polyreactivity
3 | QVQLVESGGGLVQAGGSLRLSCAASGSTFLKYTMGWYRQAPGKDRELVAGITRSSGSTYYADSVKGRFTISRDNAKNTVYLHMNSLKPEDTAVYYCAATVYLYTDLAYYWYGYWGQGTQVTVAS | high polyreactivity
4 | QVQLVESGGGLVQAGGSLRLSCAASGFTFWVYAMGWYRQAPGKERELVAAISARGGSTYYADSVKVRFTISRDNAKNTVYLQMNRLKPEDTAVYYCAAEPSGKRSKFYYWGQGTQVTVSS | high polyreactivity
5 | QVQHVESGGGLVQAGGSLRLSCAASARIFYWYVMGWSRQAPGKERELVASISRSGGSTYYADSVKGRFTISRDNAKNTVYVQMNSLKPEDTAVYYCNAGSVYTVSLPGHPYDYWGQGTQVTVSS | low polyreactivity
6 | QVQLVESGGGLVQAGGSLRLSCAASGFIFYKNAMGWYRQAPGKERELVAAISRRGSSTYYADSVKGRFTISRDNAKNTVYLQMNSLKPEDTAVYYCAADSHIDHGKWAYDYWGQGTQVTVSS | high polyreactivity
7 | QVQLVDSGGGLVQAGGSLRLSCAASGSISYYNAMGWYRQAPGKERELVATITDSGGSTYYADSVKGRFTISRDNAKNTVYLQMNSLKPEDTAVYYCAVDYSEWYSIYDYWGQGTQVTVSS | low polyreactivity
8 | QVQLVESGGGLVQAGGSLRLSCAASGSIFRQYAMGWYRQAPGKERELVATISRSGGSTYYADSVKGRFTISRDNAKNTVYLQMNSLKPEDTAVYYCAASRYNKSYREWWVGSWGQGTQVTVSS | high polyreactivity
9 | QVQLVESGGRLVQAGGSLRLSCSASGRICAYYAKGWYRQAPGKDRELVADSTYADSVKGRFTISRDNAKNTVYLQMKSLKPEYTAVYYCAVDYHFFLSRTYLPGSKYDFWGLGTQVTVSS | low polyreactivity
10 | QVQLVESGGGLVQAGGSLRLSCAASGITFIPNAMGWYRQAPGKERELVAAISISGGRTYYADSVKGRFTISRDNAKNPVYLQMNSLKPEDTAVYYCAADRADFFVIRTIDPYDYWGQGTQVTVSS | low polyreactivity
11 | QVQLVESGGGVVQAGGSLRLSCAASGRTFCIYAMGWYRPAPGKEREVVAAITGRGGSTHYADSVKGRFTISRDNAKNTVYLQMNSLKPEDTAVYYGAADYRYNRGITSNKDYDYWGQGTQVTVSS | low polyreactivity
12 | QVQLVESGGGLVQAGGSLRLSSAAYGSIFTYNAMGWYRQAPGKERELVDTISWRGGSTYYADSVKGRFTISRDNAKNTVYLQMNSLKPEDTAVYYCDKSWRGRYDYWGQGTQVTVSS | high polyreactivity
13 | QVQLVESGGGLVQAGGSLSLSCAASGFTFRWYAMGWYRQAPGKERELVAAISSDDDTSYADSVKGRFTISRDNAKNTVYLQMNSLKPEDTAVYDCAADGYYTLDAYPYGIFWYDYWGQGTQVTVSS | low polyreactivity
14 | QVQLVESGGGLVQAGGSLRLSCAASGGIFSRNAMGWYRQAPGKERELVADISRTGDSTYYADSVKGRFTISRDNAKNTVYLQMNSLKPEDTAVYYCNRDAFVGDRTVRVTTTNWGQGTQVTVSS | low polyreactivity
15 | QVQLVESGGGLVPAGGSLRLSCAASGSTFYIYAMGWYRQAPGKERELVAAISRRGSSTYYADSVKGRFTISRDNAKNTVYLQMNSLIPEDTAVYYCAASQRHDHYYWGQGTQVTVSS | high polyreactivity
16 | QVQLVESGGGLVQAGGSLRLSCAASGRTFGGYAMGWYRQAPGKERELVAAISSSGTRTYYAESVKGRFTISRDNAKNTVYLQMNSLKPEDTAVYYCAAYRVIVWYAMDYWGQGTQVTVSS | high polyreactivity
17 | QVQLVESGGGLVQAGGSLRLSCAASGGTFYYYAMGWYRQAPGKEREFVAAITWTGGRTYYADSVKGRFTISRDNAKNTVYLQMNSLKPEDTAVYYCAASDRYGGRDYWGQGTQVTVSS | high polyreactivity
18 | QVQLVESGGGLVQAGGSLRLSCAASGFMFSSYAMGWYRQAPGKERELVAAISWSDSSTYYADSVKGRFTISRDNAKNTVYLQMNSLKPEDTADYYCAAVIGPDVYYLLYDYWGQGTQVTVSS | low polyreactivity
19 | QVQLQESGGGLEKACGSLRLSCAASVNISPRDAMCWYRQAPGEERDLVASNAYSAITYYADGVKGRYTISRDNAKNTVYLHMNSLKPEDTEVYYCAVYQFPYPVFPAYCGQGTQVTVSS | low polyreactivity
20 | QVQLEESGGGLVQAGGSLRLSCPASGSTFIVNVMGWYRQAPGKERELVAAINSGGSTDYADSVKGRFTISRDNAKNTVYLQMNSLKPEDTAVYYCNAYHIVIYDYWGQGTQVTVSS | low polyreactivity
21 | QVQLVESGGGLVQAGGSLRLTCAASGRNFPAYVMGWYRQAPGKERELVAGITSASSTYYADSVKGRFTISRDNAKNTVYLQMNSLKPEDTAVYYCAAVGYSVRQRYDYWGQGSQVTVSS | high polyreactivity
22 | QVQLVESGGGLVQAGGSLRLSCAASGFIFAPNAMGWYRQAPGKERELVAAISHSGASTFYADSVKGRFTISRDNAKNTVYLQMNSLKPEDTAVYYCAAPPYYSYDYWGQGTQVTVSS | low polyreactivity

Row | Sequence | polyreactivity (PSR sort gate)
23 | QVQLVESGGGLVQAGGSLRLSCAASGRIFGQNAMGWYRQAPGKERELVASITTSGSSTNYADSVKGRFTISRDNAKNTVYLQMNSLKPEDTAVYYCAADYVSPDPDELHDYSGYYYWGQGTQVTVSS | high polyreactivity
24 | QVQLVESGGGLVQAGGSLRLSCAASGNTFSLYAMGWYRQAPGKERELVAAITWITGSTDYADSVKGRFTISRDNAKNTVYLQMNSLKPEDTAVYYCAADGDFSWFYSYETGWIEYDYWGQGTQVTVSS | low polyreactivity
25 | QVQLVESGGGLVQAGGSLRLSCAASGGIFGANAMGWYRQAPGKERELVAAITWRGGSTYYADSVKGRFTISRDNAKNTVYLQMNSLKPEDTAVYYCAKSFVRYKGRYYWGQGTQVTVSS | high polyreactivity
26 | QVQLVESGGGLVQAGVSLRLSCAASGSIFDSNAMGWYRQAPGKERELVATISSVGSTNYADSVKGRFTISRDNAKNTVYLQMNSLKPEDTAVYYCARVVDAQGYYSAASGGYYWGQGTQVSVSS | low polyreactivity
27 | QVQLVESGGGLVQAGGRLRLSCAASGFIFYFYAMGWYRQAPGKERELVAAISWSGGSPYYADSVKGRFTISRDNAKNTVYLQMNSLKPEDTAVYYCAADTRTSYYNDDYDYWGQGTQVTVSS | low polyreactivity
28 | QVQLVESGGGLVQAGGSLRLSCAASGRIFTINAMGWYRQAPGKERELVAAISNSGGRTYADSVKGRFTISRDNAKNTVYLLMNSLKAEDTAVYYCAKRYRFHFWGQGTQVTVSS | low polyreactivity
29 | QVQLVESGGGLVQAGGSLRLSCAASGSIIGPYAMGWYRQAHGKERELVAAITFSGGSTYYADSVKGRFTISRDNSKNTVYLQMNSLKPEDTAVYYCAAEYWYYTGYDYWGQGTQVTVSS | high polyreactivity
30 | QVQLVESGGGLVQAGGSLRLSCAASGRTFYTYAMGWYRQAPGKESELVATIRWSGGSTRYADSVKGRFTISRDYAKNTVYLQMNSLKPEDTAVYYCAADNYYRRKYKYDYWGQGNQVTVSS | high polyreactivity
31 | QVQLQESGGLVQAGGLRLSSAASGSVSYQEAMGWYRQAPGKERELVATISFGANTNYADSVKGRFTISRDNAKNTVYLQMNSLKPEDTAVYYCAAESLFDDYYGYWGQGTQVTVSS | low polyreactivity
32 | QDQLVESGGGLVQAGGSLRLSCAASGFTFYTNVMGWYRQAPGKERELVAAINSGGSTNYADSVKGRFTISRDNAKNTVYLQMNSMKPEDTAVYYCNKSGTEIGYDYWGQGTQVTVLS | low polyreactivity
33 | QVQLVESGGGLVQAGGSLRLSCAASGIIFVSYDMGWYRQAPGKERELVAAINRGGRTYYADSVKGRFTISRDNAKNTVYLQMNSLKAEDTAVYYCAAQFHFRPFSLTYDYWGQGTQLTVSS | high polyreactivity
34 | QVQLVESGGGLVQAGGSLRLICAASGRTFQYNAMGWYRQAPGKERELVAAISARAGSTYYADSVKGRFTISRDNAKNTVYLQMNRLKPEDTAVYYCAARAWTRSVPYGFYYWGQGTQVTVSS | high polyreactivity
35 | QVHIVESGAGLVQAGGSLRLSCAASGSIFRYNAMGWYRQAPGKEREFVAAITYSGGSTYYADSVTGRFTISRDNAKNTLFLQMNSLKPEDTAVYYCAAGYCSRGSRDGYWGQGTQVSVSS | low polyreactivity
36 | QVQLVESGGGLVQAGGSLRLSCAASGRTFDYNTMGWYRQAPGKVRELVAAISASGGSTYYADSVKGRFTISRDNAKNTVDLPMNSLKPEDTAVYYCNTYAGVEYYHWGQGTQVTVSS | low polyreactivity
37 | QVQLVESGGGLVQAGGSLRLSCAASGFISKYYAMGWYRQAPGKERELVASISRDGSTSYADSVKGRFTISRDNAKNTVYLQMNSLKPEDTAVYYCAAPSYRTRYYYWGQGTQVTVSS | high polyreactivity
38 | QVQLVESGGGLVQAGGSLRLSCASSGSIFDVNAMGWYRPAPGKERELVAAISQRGTRTYYADSVKGSFTISRDNAKNTVYLQMNSLKPEDTAVYYCNRGGWRQYDSWGQGSQVTVSS | high polyreactivity
39 | QVQLVESGGGLVQAGGSLRLSCAASGRTFYYNTMGWYRQAPGKERELVATISRIGGSTYYADSVKGRFTISRDNAKNTVYLQMNSLKPEDTAVYYCAKGRSLNGRPPVVYWQLFYYWGQGTQVTVSS | high polyreactivity
40 | QVQLVESGGGLVQAGGSLRLSCAASGLIFGRNAMGWYRQAPGKERELVAAITSGGSTYYADSVKGRFTISRDNAKNTVYLQMNSLKPEDTAVYYCAADVVDLYLLDYWGQGTQVTVSS | low polyreactivity
41 | QDHLVESGGGLVQAGGSLRLSCAAYGRTFESYAMGRYRHAPGKERELVAAISYSGGSTYYADSVKGRFTISRDNAKNTVYLQMNSLKPEDTAVYYCAVRWRYKYDYWGQGTQVTVSS | high polyreactivity
42 | QVQLVESGGGLVQAGGSLRLSCAASGITFPRNAMGWYRQAPGKERELVAAISARGGNTYYADSVKGRFTISRDNSKNNVYLQMNSLKPEDTAVYFCNALGSSYSEPSEYDYWGQGTQVTVSS | low polyreactivity
43 | QVQLVESGGGLVQAGGSLRLSCAASGSTFKQYAMGWYRQAPGKERELVAAIDRGGSTYYADSVKGRFTNSRDNAKNTVYLQMNSLKPEDTAVYFCAARFVQYLYAYDYWGQGTKVTVSS | low polyreactivity
